This note sets out measurements from patent US20220332827A1 (WUXI BIOLOGICS IRELAND, published 2022).

The target in assay [1] is human PD-L1 protein (soluble, ELISA antigen and SPR analyte) (human) (UniProt Q9NZQ7). Kind of assay: ELISA, scFv. Details: unit not given here.
The target of assay [2] is cynomolgus monkey PD-L1 protein (soluble) (cynomolgus monkey) (UniProt G7PSE7). Kind of assay: ELISA, scFv. Further details: unit not given here.
The target of assay [3] is mouse PD-L1 protein (soluble) (mouse) (UniProt Q9EP73). The assay is described as follows: ELISA, scFv. Details: unit not given here.
Assay [4] concerns the target T1, human PD-L1 on the cell surface (CHO-K1 cells expressing human PD-L1) (human, UniProt Q9NZQ7 19-290).
T1 construct: the positions are those of the human PD-L1 alanine scan; also called cell surface human PD-L1; B7-H1
The assay is described as follows: FACS on cells expressing human PD-L1, goat anti-human IgG Fc FITC. Here is the method: (§1) Cross-reactivity was measured by FACS. […] Testing antibodies were diluted in wash buffer (1><PBS/1% BSA) and incubated with cells at 4° C. for 1 hour. After washing, the secondary antibody goat anti-human IgG Fc FITC (Jackson ImmunoResearch Lab) was added and incubated at 4° C. in the dark for 1 hour. The cells were then washed once and resuspended in 1><PBS/1% BSA, and analyzed by flow cytometry (BD).

For assay [5], the target named is T2, mouse PD-L1 on the cell surface (mouse, UniProt Q9EP73 19-290).
T2 construct: whole, on cells; also called cell surface mouse PD-L1
The assay is described as follows: FACS on cells expressing mouse PD-L1, goat anti-human IgG Fc FITC. Here is the method:
as §1

Assay [6] deals with T3, cynomolgus monkey PD-L1 protein (soluble) (cynomolgus monkey, UniProt G7PSE7 19-238).
T3 construct: also called cyno PD-L1
The assay is described as follows: SPR, antibody captured on Protein A, PD-L1 as analyte. Here is the method: (§2) Antibodies were characterized for affinity and binding kinetics to PD-L1by SPR assay using ProteOn XPR36 (Bio-Rad). Protein A protein (Sigma) was immobilized to a GLM sensor chip (Bio-Rad) through amine coupling. Purified antibodies were flowed over the sensor chip and captured by the Protein A. The chip was rotated 90° and washed with running buffer (1 ><PBS/0.05% Tween20, Bio-Rad) until the baseline was stable. Five concentrations of human or cynomolgus monkey PD-L1and running buffer were flowed through the sensor chip at a flow rate of 100 μL/min for an association phase of 240s, followed by 600s dissociation. […] The chip was regenerated with pH 1.5 H₃PO₄ after each run. The association and dissociation curve was fit by 1:1 Langmuir binding model using ProteOn software.

The target in assay [7] is T4, human PD-L1 protein (soluble, ELISA antigen and SPR analyte) (human, UniProt Q9NZQ7 19-238).
T4 construct: biotinylated in the capture ELISA; also called PD-L1 (human)
The description is as above. As to the method: as §2

Assay [8] has as its target T2, mouse PD-L1 on the cell surface. Kind of assay: FACS competition: antibody against mouse Fc fusion-mouse PD-1 binding to cells expressing mouse PD-L1.
Assay [9] addresses T4, human PD-L1 protein (soluble, ELISA …). The assay is described as follows: SPR.
The target in assay [10] is T5, cynomolgus PD-L1 on the cell surface (cynomolgus, UniProt G7PSE7 19-290).
T5 construct: also called cell surface cynomolgus PD-L1
Kind of assay: FACS on cells expressing cynomolgus PD-L1, goat anti-human IgG Fc FITC. Here is the method: as §1

In assay [11] the target is T1, human PD-L1 on the cell surface (CHO-K1 …). Kind of assay: FACS epitope binning: antibody mixed with biotinylated WBP315BMK6 on CHO-K1 cells expressing human PD-L1, Streptavidin-PE. Here is the method:
(§3) CHO-K 1 cells expressing human PD-L1on the cell surface were incubated with the mixture of biotinylated benchmark antibodies and testing antibodies (serially diluted in wash buffer) at 4° C. for 1 hour. The cells were washed and the second antibody Streptavidin-PE were added and incubated for 30 min at 4° C. The cells were then washed once and resuspended in 1><PBS/1% BSA, and analyzed by flow cytometery.

The target of assay [12] is T6, human PD-L2 on the cell surface (human, UniProt Q9BQ51 20-273).
T6 construct: whole, on cells; also called cell surface human PD-L2
T6 sequence (looked up): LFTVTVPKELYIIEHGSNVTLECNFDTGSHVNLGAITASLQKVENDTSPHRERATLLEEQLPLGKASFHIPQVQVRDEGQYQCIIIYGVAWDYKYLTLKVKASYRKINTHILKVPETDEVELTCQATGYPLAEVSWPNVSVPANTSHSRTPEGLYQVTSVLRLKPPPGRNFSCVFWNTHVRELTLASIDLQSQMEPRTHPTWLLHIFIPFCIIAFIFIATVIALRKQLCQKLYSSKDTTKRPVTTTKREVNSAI
The assay is described as follows: FACS on PD-L2+ CHO-K1 cells, goat anti-human IgG Fc FITC (cross-family test). As to the method: Testing antibodies were diluted in wash buffer (1><PBS/1% BSA) and incubated with cells at 4° C. for 1 hour. After washing, the secondary antibody goat anti-human IgG Fc FITC (Jackson ImmunoResearch Lab) was added and incubated at 4° C. in the dark for 1 hour. The cells were then washed once and resuspended in 1><PBS/1% BSA, and analyzed by flow cytometry (BD).

The target of assay [13] is T1, human PD-L1 on the cell surface (CHO-K1 …). The assay is described as follows: FACS epitope binning: antibody mixed with biotinylated WBP315BMK1 on CHO-K1 cells expressing human PD-L1, Streptavidin-PE. Here is the method: as §3
Assay [14] shares this target. Kind of assay: FACS competition: antibody against mouse Fc fusion-human PD-1 binding to cells expressing human PD-L1.

T4 sequence (Q9NZQ7 19-238 limits assumed): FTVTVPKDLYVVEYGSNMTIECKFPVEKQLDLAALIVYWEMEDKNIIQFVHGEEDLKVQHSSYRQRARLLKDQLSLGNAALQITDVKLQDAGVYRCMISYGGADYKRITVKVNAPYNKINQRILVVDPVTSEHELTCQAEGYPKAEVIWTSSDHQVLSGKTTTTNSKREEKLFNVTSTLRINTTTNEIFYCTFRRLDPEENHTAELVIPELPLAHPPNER
T1 sequence (Q9NZQ7 19-290 limits assumed): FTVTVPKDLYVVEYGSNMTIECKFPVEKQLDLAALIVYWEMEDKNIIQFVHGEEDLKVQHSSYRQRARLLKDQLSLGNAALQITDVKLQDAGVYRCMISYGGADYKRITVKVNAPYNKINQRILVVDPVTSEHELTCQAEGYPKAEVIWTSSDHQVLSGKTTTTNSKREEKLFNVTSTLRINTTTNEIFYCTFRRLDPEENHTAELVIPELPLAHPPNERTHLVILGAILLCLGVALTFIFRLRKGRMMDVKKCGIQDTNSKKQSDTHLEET
T3 sequence (G7PSE7 entry or part of it limits assumed): as the sequence (Q9NZQ7 19-238 limits assumed) above, with A33T, A34S, S62N, R68Q, Q82R, F173L, T185A, T192I, H215L counted along it
T2 sequence (Q9EP73 19-290): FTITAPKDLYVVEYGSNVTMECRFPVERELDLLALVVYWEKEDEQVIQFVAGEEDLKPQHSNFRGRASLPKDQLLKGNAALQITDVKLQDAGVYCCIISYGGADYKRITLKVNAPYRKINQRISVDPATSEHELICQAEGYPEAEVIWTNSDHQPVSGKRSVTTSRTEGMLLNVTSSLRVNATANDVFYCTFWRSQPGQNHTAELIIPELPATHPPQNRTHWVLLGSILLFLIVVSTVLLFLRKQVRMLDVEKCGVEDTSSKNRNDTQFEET
Sequence of human PD-L1 protein (soluble, ELISA antigen and SPR analyte) (human) (Q9NZQ7 19-238 limits assumed): as the sequence (Q9NZQ7 19-238 limits assumed) above
T5 sequence (G7PSE7 entry or part of it limits assumed): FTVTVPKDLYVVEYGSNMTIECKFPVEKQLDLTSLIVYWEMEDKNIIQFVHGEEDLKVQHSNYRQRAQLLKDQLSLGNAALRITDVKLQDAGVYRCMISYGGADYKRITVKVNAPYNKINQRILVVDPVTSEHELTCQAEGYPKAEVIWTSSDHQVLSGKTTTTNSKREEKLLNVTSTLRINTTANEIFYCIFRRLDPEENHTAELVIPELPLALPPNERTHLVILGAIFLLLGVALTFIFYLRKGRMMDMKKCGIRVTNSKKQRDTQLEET
Sequence of cynomolgus monkey PD-L1 protein (soluble) (cynomolgus monkey) (G7PSE7 entry or part of it limits assumed): as the sequence (Q9NZQ7 19-238 limits assumed) above, with A33T, A34S, S62N, R68Q, Q82R, F173L, T185A, T192I, H215L counted along it
Sequence of mouse PD-L1 protein (soluble) (mouse) (Q9EP73 19-238 limits assumed): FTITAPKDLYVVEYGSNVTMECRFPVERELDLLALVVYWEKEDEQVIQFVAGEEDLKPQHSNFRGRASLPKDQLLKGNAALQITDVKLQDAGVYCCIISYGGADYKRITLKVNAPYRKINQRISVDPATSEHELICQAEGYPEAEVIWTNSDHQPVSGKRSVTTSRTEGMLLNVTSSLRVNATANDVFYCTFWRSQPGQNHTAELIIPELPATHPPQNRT

B1: W3152-r11.135.5-zAb17-m6 (scFv) (scFv, part only; not given: linker, domain order, tag, V domains shown, not shown: another chain or arm of the molecule; small tags and cut ends)
VH: QVQLQESGPGLVKPSETLSLTCTVSGFSLTENSVSWIRQPPGKGLEWIGAVWSSGSTDYNSALKSRVTISRDTSKNQFSLKLSSVTAADTAVYYCTRSTYSNDFYYYFDYWGQGTMVTVSS
VL: SYELTQPPSVSVSPGQTASITCSGSELPKRYAYWYQQKPGQSIVRVIYKDSERPSGISERFSGSSSGNTATLTISGTQAMDEADYYCSSTYGDRKLPIFGGGTKLTVL
For B1, the Bmax in [1] turned out to be 3.22; in [2], 2.4; in [3], 3.46.

B2: W3152-r11.135.5-zAb17-m6-uIgG4L (antibody, V domains shown)
VH: B1 VH
VL: SYELTQPPSVSVSPGQTASITCSGSELPKRYAYWYQQKPGQSIVRVIYKDSERPSGISERFSGSSSGNTATLTISGTQAMDEADYYCSSTYGDRKLPIFGGGTKLTVLG
notes: also called W3152-r11.135.5-zAb17-m6-IgG4L
For the molecule B2, the results for the “EC50 (read off the curve)” value in assay [4], in assay [5] and in assay [10] were approximately 0.2 nM, approximately 2 nM and approximately 1 nM, respectively. Besides, the results for the Kd in assay [6] and in assay [7] were 0.403 nM and 0.514 nM, respectively. Further, the koff in assay [6] was 0.00101 s⁻¹; in assay [7], 0.00145 s⁻¹; in assay [9], 0.00103 s⁻¹. Besides, the kon in [6] is 2.52e+06 M⁻¹ s⁻¹; in assay [7] it was 2.81e+06 M⁻¹ s⁻¹. Further, the “IC50 (read off the curve)” value in [8] is approximately 2 nM; in assay [11], approximately 2 nM; in [13], approximately 0.6 nM; in assay [14], approximately 0.1 nM. Also, in assay [12], the binding result is given as “no binding (tested: concentration not shown)”.
